Test results taken from patent US20110172168A1 (MEDIGENE, published 2011).

Target: T1, CEA-derived … (SEQ ID NO: 71)-HLA-A*0201 complex (biotin on the C-terminal biotinylation tag (enzymatic, BirA))
T1 construct: also called soluble biotinylated HLA-A2-peptide complex; not shown: C-terminal biotinylation tag that replaces the transmembrane and cytoplasmic domains
Experiment: Biacore SPR, pMHC immobilised
Protocol: SPR measures changes in refractive index expressed in response units (RU) near a sensor surface within a small flow cell, a principle that can be used to detect receptor ligand interactions and to analyse their affinity and kinetic parameters. The probe flow cells were prepared by immobilising the pMHC complexes in flow cells via biotin-tag binding. The assay was then performed by passing soluble ILT over the surfaces of the different flow cells at a constant flow rate, measuring the SPR response in doing so.

Binder | Kd [nM] | koff [s⁻¹]
SEQ ID NO 45 (receptor) MAGHLPKPTLWAEPGSVITMDQPVTLRCQGGQETQEYRLYREKKTAPWITRIPQELVKKGQFPIPSITWEHAGRYRCYYGSDTSQWSASSDPLELVVTGVYIKPTLSAQPSPVVNSGGNVTLQCDSQVAFDGFILCKEGEDEHPQCLNSQPHARGSSRAIFSVGPVSPSRRWWYRCYAYMSNSPYEWSLPSDLLELDVDG | ≤ 1000 | ≤ 2
SEQ ID NO 47 (receptor) MAGHLPKPTLWAEPGSVITMDQPVTLRCQGGQETQEYRLYREKKTAPWITRIPQELVKKGQFPIPSITWEHAGRYRCYYGSDTSQWSASSDPLELVVTGVYIKPTLSAQPSPVVNSGGNVTLQCDSQVAFDGFILCKEGEDEHPQCLNSQPHARGSSRAIFSVGPVSPSRRWWYRCYAYMSNAPYEWSLPSDLLELDVDG | ≤ 1000 | ≤ 2
SEQ ID NO 48 (receptor) MAGHLPKPTLWAEPGSVITMDQPVTLRCQGGQETQEYRLYREKKTAPWITRIPQELVKKGQFPIPSITWEHAGRYRCYYGSDTSQWSASSDPLELVVTGVYIKPTLSAQPSPVVNSGGNVTLQCDSQVAFDGFILCKEGEDEHPQCLNSQPHARGSSRAIFSVGPVSPSRRWWYRCYAYDSWAPYEWSLPSDLLELDVDG | ≤ 1000 | ≤ 2
SEQ ID NO 52 (receptor) MAGHLPKPTLWAEPGSVITMDQPVTLRCQGGQETQEYRLYREKKTAPWITRIPQELVKKGQFPIPSITWEHAGRYRCYYGSDTSQWSASSDPLELVVTGVYIKPTLSAQPSPVVNSGGNVTLQCDSQVAFDGFILCKEGEDEHPQCLNSQPHARGSSRAIFSVGPVSPSRRWWYRCYAYPIWTPYEWSQMSDLLELDVDG | ≤ 1000 | ≤ 2
SEQ ID NO 51 (receptor) MAGHLPKPTLWAEPGSVITMDQPVTLRCQGGQETQEYRLYREKKTAPWITRIPQELVKKGQFPIPSITWEHAGRYRCYYGSDTSQWSASSDPLELVVTGVYIKPTLSAQPSPVVNSGGNVTLQCDSQVAFDGFILCKEGEDEHPQCLNSQPHARGSSRAIFSVGPVSPSRRWWYRCYAYPIWTPYEWSLGSDLLELDVDG | ≤ 1000 | ≤ 2

Continued, values first:

Kd [nM] | koff [s⁻¹] | Binder
≤ 1000 | ≤ 2 | SEQ ID NO 44 (receptor) MAGHLPKPTLWAEPGSVITMDQPVTLRCQGGQETQEYRLYREKKTAPWITRIPQELVKKGQFPIPSITWEHAGRYRCYYGSDTSQWSASSDPLELVVTGVYIKPTLSAQPSPVVNSGGNVTLQCDSQVAFDGFILCKEGEDEHPQCLNSQPHARGSSRAIFSVGPVSPSRRWWYRCYAYPAYTPYEWSLPSDLLELDVDG
≤ 1000 | ≤ 2 | SEQ ID NO 46 (receptor) MAGHLPKPTLWAEPGSVITMDQPVTLRCQGGQETQEYRLYREKKTAPWITRIPQELVKKGQFPIPSITWEHAGRYRCYYGSDTSQWSASSDPLELVVTGVYIKPTLSAQPSPVVNSGGNVTLQCDSQVAFDGFILCKEGEDEHPQCLNSQPHARGSSRAIFSVGPVSPSRRWWYRCYAYDSWSPYEWSLPSDLLELDVDG
≤ 1000 | ≤ 2 | SEQ ID NO 54 (receptor) MAGHLPKPTLWAEPGSVITMDQPVTLRCQGGQETQEYRLYREKKTAPWITRIPQELVKKGQFPIPSITWEHAGRYRCYYGSDTSQWSASSDPLELVVTGVYIKPTLSAQPSPVVNSGGNVTLQCDSQVAFDGFILCKEGEDEHPQCLNSQPHARGSSRAIFSVGPVSPSRRWWYRCYAYPIWTPYEWSTSSDLLELDVDG
≤ 1000 | ≤ 2 | SEQ ID NO 53 (receptor) MAGHLPKPTLWAEPGSVITMDQPVTLRCQGGQETQEYRLYREKKTAPWITRIPQELVKKGQFPIPSITWEHAGRYRCYYGSDTSQWSASSDPLELVVTGVYIKPTLSAQPSPVVNSGGNVTLQCDSQVAFDGFILCKEGEDEHPQCLNSQPHARGSSRAIFSVGPVSPSRRWWYRCYAYPIWTPYEWTRGSDLLELDVDG
